Results published in patent US20260151519A1 (AKTIS ONCOLOGY, published 2026).
Bridges are numbered along the chain shown (N, C = ends). Primed or numbered codes have the meaning given here. Where no end group is shown, it is not given here. The star is where a group is joined. FITC = O=C1OC2(c3ccc(O)cc3Oc3cc(O)ccc32)c2ccc(NC(=S)*)cc21; DTPA = O=C(O)CN(CCN(CC(=O)O)CC(=O)O)CCN(CC(=O)O)CC(=O)*; Biotin = O=C1N[C@H]2[C@H](CS[C@H]2CCCCC(=O)*)N1; PEG4″ = 4(ethylene glycol)

Target: T1, Human Nectin-4 (human, UniProt Q96NY8 32-349, limits assumed)
T1 construct: Protein immobilised on the SPR chip; also called target protein
T1 sequence: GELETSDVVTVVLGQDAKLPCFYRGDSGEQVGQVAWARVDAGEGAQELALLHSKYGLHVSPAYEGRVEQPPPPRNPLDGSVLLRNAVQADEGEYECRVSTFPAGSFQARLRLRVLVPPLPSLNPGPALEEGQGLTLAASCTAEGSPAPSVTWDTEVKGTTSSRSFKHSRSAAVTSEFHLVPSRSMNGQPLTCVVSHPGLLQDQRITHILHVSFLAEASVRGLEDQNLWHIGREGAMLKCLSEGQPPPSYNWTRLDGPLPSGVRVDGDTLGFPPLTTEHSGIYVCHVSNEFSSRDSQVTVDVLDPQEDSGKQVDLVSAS
Test: Table 2B (DELFIA or SPR)

## Ac-CEYDEEFFAGLKRLRGGDICYYIKKKFKKVPDLCIEEILDKLGC-OH (designed binder, disulfide 1-34, 20-44) [C16]
  Kd: 4.34 nM

## Ac-CEYDEEFFAGLKRLRRGDICYYIKKKFDKVPDLCIEEILDKLGC (designed binder, disulfide 1-34, 20-44) [C14]
  Kd: 14.1 nM

## H-CEYDEEFFAGLKRLRGGDICYYIKKKFDKVPDLCIKEILDKLGC-OH (designed binder, disulfide 1-34, 20-44) [C3]
  Kd: 9.68 nM

## H-CEDDFQFFADLKRLRGGDICYYIRLKFDKVPDLCIKEILDKLGC-OH (designed binder, disulfide 1-34, 20-44) [C4]
  Kd: 14.4 nM

## Ac-CEYDEEFFNGLKRLRGGDICYYIKKKFDKVPDLCIEEILDKLGC-OH (designed binder, disulfide 1-34, 20-44) [C13]
  Kd: 6.01 nM

## H-CEYDEEFFAGLKRLRGGDICYYIKKKFDKVPDLCIEEILDKLGC-OH (designed binder, disulfide 1-34, 20-44) [C7]
  Kd: 5.5 nM

## {FITC}-CEYDEEFFAGLKRLRGGDICYYIKKKFDKVPDLCIEEILDKLGC-OH (designed binder, disulfide 1-34, 20-44) [C10]
  Kd: 37.6 nM

## {Biotin-PEG4″}-CEDDEEFFADLKRLRGGDICYYIKLKFDKVPDLCIKEILDKLGC (designed binder, disulfide 1-34, 20-44) [C2]
  Kd: 58.9 nM

## {DTPA-PEG4″}-CEYDEEFFAGLKRLRGGDICYYIKKKFDKVPDLCIEEILDKLGC-OH (designed binder, disulfide 1-34, 20-44) [C11]
  Kd: 6.86 nM

## Ac-CEYDEEFFAGLKRLRGGDICYYIKKKFDKVPDLCIKEILDKLGC-OH (designed binder, disulfide 1-34, 20-44) [C5]
  Kd: 18.9 nM

## Ac-CEDDFQFFADLKRLRGGDICYYIRLKFDKVPDLCIKEILDKLGC-OH (designed binder, disulfide 1-34, 20-44) [C6]
  Kd: 17.1 nM

## {Biotin-PEG4″}-CEYDEEFFTALARLRGGDICYYIQAKFQYLPKLCIEEILDNLGCS-OH (designed binder, disulfide 1-34, 20-44) [C166]
  Kd: 0.75 nM

## {Biotin-PEG4″}-CEYDEEFFTALKRLRGADICDYIQASFQYLPGLCIEEILDNLGCS-OH (designed binder, disulfide 1-34, 20-44) [C195]
  Kd: 2.3 nM

## {Biotin-PEG4″}-CDYDEQFFTALKRLRGGDICEYIQASFQYLPGECIEEILDNLGCS (designed binder, disulfide 1-34, 20-44) [C210]
  Kd: 1.54 nM

## {Biotin-PEG4″}-CDYDEEFFTALKRLRGDDICSYIQASFQYLPGLCIEEILDNLGCS-OH (designed binder, disulfide 1-34, 20-44) [C192]
  Kd: 1.3 nM

## {Biotin-PEG4″}-CEYDEQFFTALKRLRGGDICSYIQASFQYLPGLCIEEILDNLGCS (designed binder, disulfide 1-34, 20-44) [C184]
  Kd: 2.5 nM

## {Biotin-PEG4″}-CEYDEEFFTALKRLRGDDICSYIQASFQYLPGLCIEEILDNLGCS-OH (designed binder, disulfide 1-34, 20-44) [C182]
  Kd: 3 nM

## {Biotin-PEG4″}-CEYDEEFFTALKRLRGGDICEYIQASFQYLPGECIEEILDNLGCS (designed binder, disulfide 1-34, 20-44) [C202]
  Kd: 2.2 nM

## {Biotin-PEG4″}-CDYDEQFFTALKRLRGGDICEYIQASFQYLPGQCIEEILDNLGCS (designed binder, disulfide 1-34, 20-44) [C211]
  Kd: 1.19 nM

## {Biotin-PEG4″}-CEYDEEFFTALKRLRGDDICYYIQASFQYLPGLCIEEILDNLGCS-OH (designed binder, disulfide 1-34, 20-44) [C180]
  Kd: 2.7 nM

## {Biotin-PEG4″}-CEYDEEFFTALARLRGGDICYYIQAYFQYLPGLCIEEILDNLGCS-OH (designed binder, disulfide 1-34, 20-44) [C174]
  Kd: 4.1 nM

## {Biotin-PEG4″}-CEYDEEFFTALARLRGGDICSYIQAKFQYLPKLCIEEILDNLGCS (designed binder, disulfide 1-34, 20-44) [C168]
  Kd: 0.9 nM

## {Biotin-PEG4″}-CEYDEEFFTALARLRGGDICDYIQAKFQYLPKLCIEEILDNLGCS (designed binder, disulfide 1-34, 20-44) [C169]
  Kd: 0.74 nM

## {Biotin-PEG4″}-CDYDEQFFTALKRLRGDDICEYIQASFQYLPGLCIEEILDNLGCS-OH (designed binder, disulfide 1-34, 20-44) [C193]
  Kd: 1 nM

## {Biotin-PEG4″}-CEYDEEFFTALKRLRGGDICSYIQASFQYLPGLCIEEILDNLGCS-OH (designed binder, disulfide 1-34, 20-44) [C179]
  Kd: 1.8 nM

## {Biotin-PEG4″}-CDYDEQFFTALKRLRGADICEYIQASFQYLPGQCIEEILDNLGCS (designed binder, disulfide 1-34, 20-44) [C209]
  Kd: 1.25 nM

## {Biotin-PEG4″}-CEYDEQFFTALKRLRGADICDYIQASFQYLPGLCIEEILDNLGCS-OH (designed binder, disulfide 1-34, 20-44) [C194]
  Kd: 1.1 nM

## {Biotin-PEG4″}-CEYDEQFFTALKRLRGDDICSYIQASFQYLPGLCIEEILDNLGCS (designed binder, disulfide 1-34, 20-44) [C186]
  Kd: 1.7 nM

## {Biotin-PEG4″}-CEYDEEFFTALARLRGGDICEYIQAKFQYLPKLCIEEILDNLGCS-OH (designed binder, disulfide 1-34, 20-44) [C167]
  Kd: 1.2 nM

## {Biotin-PEG4″}-CDYDEQFFTALKRLRGADICEYIQASFQYLPGLCIEEILDNLGCS-OH (designed binder, disulfide 1-34, 20-44) [C207]
  Kd: 1.08 nM

## {Biotin-PEG4″}-CEYDEEFFTALKRLRGGDICEYIQASFQYLPGECIEEILQNLGCS-OH (designed binder, disulfide 1-34, 20-44) [C204]
  Kd: 1.98 nM

## {Biotin-PEG4″}-CEYDEEFFTALKRLRGDDICEYIQASFQYLPGLCIEEILDNLGCS-OH (designed binder, disulfide 1-34, 20-44) [C181]
  Kd: 3 nM

## {Biotin-PEG4″}-CEYDEEFFTALKRLRGGDICDYIQASFQYLPGLCIEEILDNLGCS-OH (designed binder, disulfide 1-34, 20-44) [C200]
  Kd: 2 nM

## {Biotin-PEG4″}-CDYDEEFFTALKRLRGGDICSYIQASFQYLPGLCIEEILDNLGCS-OH (designed binder, disulfide 1-34, 20-44) [C189]
  Kd: 1.1 nM

## {Biotin-PEG4″}-CEYDEEFFTALKRLRGGDICDYIQASFQYLPGECIEEILDNLGCS-OH (designed binder, disulfide 1-34, 20-44) [C203]
  Kd: 2.3 nM

## {Biotin-PEG4″}-CEYDEEFFTALKRLRGGDICDYIQASFQYLPGECIEEILQNLGCS-OH (designed binder, disulfide 1-34, 20-44) [C205]
  Kd: 2.1 nM

## {Biotin-PEG4″}-CDYDEEFFTALKRLRGDDICEYIQASFQYLPGLCIEEILDNLGCS-OH (designed binder, disulfide 1-34, 20-44) [C191]
  Kd: 1.4 nM

## {Biotin-PEG4″}-CDYDEEFFTALKRLRGGDICEYIQASFQYLPGLCIEEILDNLGCS-OH (designed binder, disulfide 1-34, 20-44) [C188]
  Kd: 1.6 nM

## {Biotin-PEG4″}-CEYDEEFFTALKRLRGGDICYYIQASFQYLPGECIEEILDNLGCS-OH (designed binder, disulfide 1-34, 20-44) [C177]
  Kd: 2 nM

## {Biotin-PEG4″}-CEYDEEFFTALKRLRGGDICEYIQAAFQYLPGLCIEEILDNLGCS-OH (designed binder, disulfide 1-34, 20-44) [C198]
  Kd: 2.3 nM

## {Biotin-PEG4″}-CEYDEQFFTALKRLRGADICEYIQASFQYLPGLCIEEILDNLGCS-OH (designed binder, disulfide 1-34, 20-44) [C183]
  Kd: 1.2 nM
